Test results as given in publication PMC5675522 (Angiogenesis, 2017).

What was measured:
recombinant human Wnt5a = biological target: T1, recombinant human Wnt5a (human, UniProt P41221 62-380); experiment: ELISA
T1 sequence (looked up): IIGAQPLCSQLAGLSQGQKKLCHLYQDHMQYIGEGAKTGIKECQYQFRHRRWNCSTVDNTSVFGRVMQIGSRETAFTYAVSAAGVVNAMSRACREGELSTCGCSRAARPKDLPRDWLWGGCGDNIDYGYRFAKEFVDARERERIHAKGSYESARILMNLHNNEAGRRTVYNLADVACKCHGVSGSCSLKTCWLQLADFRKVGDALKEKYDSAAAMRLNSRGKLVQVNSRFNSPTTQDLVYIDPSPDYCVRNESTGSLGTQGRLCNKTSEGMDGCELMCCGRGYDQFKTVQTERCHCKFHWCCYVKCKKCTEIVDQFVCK

[1] = biological target: T2, recombinant human SFRP2 (secreted frizzled-related protein 2) with C-terminal hexahistidine tag (human, UniProt Q96HF1 25-295); experiment: ELISA
T2 sequence (looked up): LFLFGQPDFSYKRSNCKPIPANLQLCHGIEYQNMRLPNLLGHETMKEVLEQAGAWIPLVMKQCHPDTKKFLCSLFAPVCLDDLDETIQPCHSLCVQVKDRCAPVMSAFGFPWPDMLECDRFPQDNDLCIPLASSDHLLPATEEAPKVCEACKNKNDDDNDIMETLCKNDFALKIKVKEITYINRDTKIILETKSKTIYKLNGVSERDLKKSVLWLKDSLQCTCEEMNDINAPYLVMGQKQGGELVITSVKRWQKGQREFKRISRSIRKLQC

B1: Frizzled-5 Fc Fusion protein (Fc fusion, human, UniProt Q13467 27-238, looked up)
chain: ASKAPVCQEITVPMCRGIGYNLTHMPNQFNHDTQDEAGLEVHQFWPLVEIQCSPDLRFFLCSMYTPICLPDYHKPLPPCRSVCERAKAGCSPLMRQYGFAWPERMSCDRLPVLGRDAEVLCMDYNRSEATTAPPRPFPAKPTLPGPPGAPASGGECPAGGPFVCKCREPFVPILKESHPLYNKVRTGQVPNCAVPCYQPSFSADERTFATFW
Q: With B1 as the binder, how does the EC50 (recombinant human Wnt5a) read?
A: 216 nM

Q: And the Kd (recombinant human Wnt5a)?
A: 108 nM

Q: And the EC50 [1]?
A: 205 nM

Q: What about the Kd [1] of the same binder?
A: 103 nM
